Test results as given in article PMC3547035, “Investigating the Antiproliferative Activity of High Affinity DNA Aptamer on Cancer Cells”.

Assays:
VEGF121 = VEGF121 (Homo sapiens, UniProt P15692-9 27-147); test: SPR; SPR BIAcore 2000, CM5 chip, immobilized protein ~200 RU, PBS + Tween-20 running buffer (pH not stated), 25 C, aptamer 0.2-100 nM, 1:1 Langmuir fit; conditions: protein: recombinant; tags: carrier free; chain copies: 2; hairpin (CD)
VEGF165 = VEGF165 (Homo sapiens, UniProt P15692-4 27-191); test: as above; conditions: protein: recombinant; tags: carrier free; chain copies: 2; hairpin (CD)
Chain of VEGF165 (P15692 other isoform, or with tags, fused parts or gaps): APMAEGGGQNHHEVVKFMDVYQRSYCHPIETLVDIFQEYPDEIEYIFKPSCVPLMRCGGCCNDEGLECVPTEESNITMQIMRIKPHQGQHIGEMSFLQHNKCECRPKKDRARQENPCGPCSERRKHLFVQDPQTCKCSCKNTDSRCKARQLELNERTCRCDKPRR

Chain of VEGF121 (P15692 other isoform, or with tags, fused parts or gaps): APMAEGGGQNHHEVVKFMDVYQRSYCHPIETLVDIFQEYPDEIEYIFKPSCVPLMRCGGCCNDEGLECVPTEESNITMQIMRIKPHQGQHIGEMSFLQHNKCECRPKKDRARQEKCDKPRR

With CAATTGGGCCCGTCCGTATGGTGGGT (XNA, phosphorothioate linkages C1*A2 and G25*T26) [PS-modified SL2-B] as the binder, how does the Kd (VEGF121) read?
Its Kd is 17 ± 1.24 µM.

And the Kd (VEGF165)?
The Kd was 0.00056 ± 0.00044 µM.
